Assay results reported in patent publication US10533050B2, “Methods and compositions for liver cancer therapy” (Institut National de la Sante et de la Recherche Medicale …, priority 2010, dated 2020).

How the values were obtained:
Assay type in all cases: cell-based
[1] = system: side population cells of Huh7 cells; assay: Spheroid formation of Huh7 side population cells under low adherence culture conditions; conditions: 5 nM doxorubicin, 9 days; FIG. 9
Experimental: The dye excluding side population cells of Huh7 cells were isolated as described in Example 8. Side population cells were then seeded into ultra low adherence 96-well plates (200 cells/well) in M11 medium, and grown for 9 days at 37° C. in the presence of control or anti-progastrin polyclonal antibodies (1 μg/ml), 5 nM doxorubicin (a chemotherapeutic agent used in certain liver cancer therapy), or DMSO (vehicle for doxorubicin) (15 wells per condition). The composition of M11 medium was as follows: DMEM/F12-Glutamax (Catalog #31331 Invitrogen); 20 ng/ml EGF (R&D systems); 10 ng/ml FGF (R&D systems); 20 microg/ml Insulin (Sigma); 1/100 dilution of N2 supplement (Catalog #P1510, Gibco); 2 μg/ml ciprofloxacin, 5 μg/ml gentamycin and 3 μg/ml glucose. At the end of the experiment, photomicrographs were taken, and the number of spheres per well counted and the mean and standard deviation calculated.
The dye excluding side population cells of Huh7 cells were isolated as described in Example 8. […] At the end of the experiment, photomicrographs were taken, and the number of spheres per well counted and the mean and standard deviation calculated.

liver cancer cells = assay: Neutralizing activity with liver cancer cells; conditions: tests with liver cancer cells
Experimental: A specific test for assessing whether a particular anti-hPG antibody is neutralizing can be performed as follows. Huh7 hepatocellular carcinoma cells are seeded in ultra low-adherence 24-well plates (500 cells/well) in serum-free M11 medium. Cells are grown at 37° C. and treated twice daily for 7 days with the test anti-hPG antibody or a control, non-specific monoclonal antibody, at antibody concentrations of about 5 μg/mL. At the end of the experiment, photomicrographs are taken, and the number of spheres per well is counted and the median and percentile distribution calculated.

[2] = system: PLC/PRL/5 hepatocellular carcinoma cells; assay: Spheroid formation of PLC/PRL/5 cells under low adherence culture conditions; conditions: vs control MAb
Experimental: PLC/PRL/5 hepatocellular carcinoma cells were seeded in ultra low-adherence 24-well plates (220 cells/well) in serum-free M11 medium (DMEM/F12 with 20 ng/ml EGF, 10 ng/ml FGF, 20 μg/ml insulin, N2 supplement, 2 μg/ml ciprofloxacin, 5 μg/ml gentamycin and 3 μg/ml glucose). Cells were grown for 10 days at 37° C., with the daily addition of control or anti-hPG MAb3 monoclonal antibodies (1 μg/ml). At the end of the experiment, photomicrographs were taken, and the number of spheres per well counted and the mean and standard deviation calculated. In one experiment, PLC/PRL/5 hepatocellular carcinoma cells were seeded in ultra low-adherence 96-well plates (35 cells/well) in serum-free M11 medium (DMEM/F12 with 20 ng/ml EGF, 10 ng/ml FGF, 20 μg/ml insulin, N2 supplement, 2 μg/ml ciprofloxacin, 5 μg/ml gentamycin, and 3 μg/ml glucose). […] At the end of the experiment, photomicrographs were taken, and the number of spheres per well counted and the median and percentile distribution calculated. […] At the end of the experiment, photomicrographs were taken, and the number of spheres per well counted and the median and percentile distribution calculated. […] At the end of the experiment, photomicrographs were taken, and the number of spheres per well counted and the median and percentile distribution calculated.

[3] = system: Huh7 hepatocellular carcinoma cells; assay: Spheroid formation of Huh7 cells after antibody pre-treatment under regular adherence; conditions: pre-treatment with 10 μg/mL, then 5 days without treatment, vs control MAb; FIG. 13A-B
Experimental: In one experiment, 75,000 Huh7 hepatocellular carcinoma cells/well were first seeded into 6-well plates in MEMα with 10% FCS, serum starved overnight and grown for 60 hours in MEMα+0.5% Pannexin H in the presence of 10 μg/mL anti-progastrin monoclonal antibody MAb8 or control monoclonal antibody (P3X63Ag8, ATCC, Ref TIB-9). At the end of treatment, for each treatment group, 500 cells/well were plated into eight wells of ultra low-adherence 24-well plates in 500 μl of serum-free M11 medium containing bFGF and EGF, and grown for a further 5 days without treatment. At the end of this period, photographs were taken, the number of spheres per well was counted, and sphere surface was measured. […] Thereafter, an operator who was blinded to the identity of all wells counted the spheroids.
In a second experiment, 75,000 Huh7 hepatocellular carcinoma cells/well were first seeded into 6-well plates in MEMα with 10% FCS, serum starved overnight and grown for 60 hours in MEMα+0.5% Pannexin H in the presence of 10 μg/mL anti-progastrin monoclonal antibody MAb16 or a control monoclonal antibody (P3X63Ag8, ATCC, Ref TIB-9). […] At the end of this period, photographs were taken, the number of spheres per well was counted, and sphere surface was measured. […] Thereafter, an operator who was blinded to the identity of all wells counted the spheroids.

| Molecule | Number of spheroids formed [1] | Neutralizing activity (liver cancer cells) | Number of spheroids formed ([2]; 3 μg/ml twice daily, 8 days, FIG. 15A) | Number of spheroids formed ([2]; 6 μg/ml twice daily, 7 days, FIG. 15C) | Ability to grow as spheroids [3] |
| --- | --- | --- | --- | --- | --- |
| COc1cccc2c1C(=O)c1c(O)c3c(c(O)c1C2=O)C[C@@](O)(C(=O)CO)C[C@@H]3O[C@H]1C[C@H](N)[C@H](O)[C@H](C)O1 [Doxorubicin, doxorubicin] | reduce the number of spheroids | – | – | – | – |
| MAb19: murine N-terminal anti-hPG monoclonal antibody, hybridoma 1B3B4F11, VH SEQ ID NO:62, VL SEQ ID NO:66 (antibody, V domains shown) VH: DVQLQESGPGLVKPSQSLSLTCTVTGYSITSDYAWNWIRQFPGNKLEWMGYISFSGYTSYNPSLKSRISVTRDTSRNQFFLQLTSVTTEDTATYYCAREVNYGDSYHFDYWGQGTIVTVSS VL: QLALTQSSSASFSLGASAKLTCTLSSQHRTYTIEWYQQQSLKPPKYVMEVKKDGSHSTGHGIPDRFSGSSSGADRYLSISNIQPEDEAIYICGVGDAIKGQSVFVFGGGTKVTVL | – | exhibited neutralizing activity | significantly reduced | – | – |
| MAb8: murine C-terminal anti-hPG monoclonal antibody, hybridoma 1C10D3B9, VH SEQ ID NO:59, VL SEQ ID NO:63 (antibody, V domains shown) VH: EVQLVESGGGLVKPGGSLKLSCAASGFTFTTYAMSWVRQTPEKRLEWVATISSGGTYTYYPDSVKGRFTISRDNAKNALYLQMSSLRSEDTAMYYCATQGNYSLDFWGQGTSLTVSS VL: DIVMTQAASSNPVTLGTSASISCRSSKSLRHTKGITFLYWYLQKPGQSPQLLIYQMSNLASGVPDRFSSSGSGTDFTLRISRVEAEDLGVYYCAQNLELPLTFGAGTKLELK | – | exhibited neutralizing activity | – | significantly reduced | significantly reduced |
| MAb3: murine N-terminal anti-hPG monoclonal antibody, hybridoma 6B5B11C10, VH SEQ ID NO:12, VL SEQ ID NO:13 (antibody, V domains shown) VH: EVQLQQSGTVLARPGASVKMSCKASGYIFTSYWVHWVKQRPGQGLEWIGGFYPGNSDSRYNQKFKGKATLTAVTSASTAYMDLSSLTNEDSAVYFCTRRDSPQYWGQGTTLTVSS VL: DVLMTQTPLSLPVSLGDQASISCRSSQSIVHSNGNTYLEWYLQKPGQSPKLLIYKVSNRFSGVPDRFSGSGSGTDFTLKISRLEAEDLGVYYCFQGSHVPFTFGGGTKLEIK | – | exhibited neutralizing activity | – | – | – |
